Measured values taken from patent publication US20200230057A1, “Pharmaceutical Compositions, Methods for Preparation using Lipid Vesicle Particles of Defined Size, and Uses Thereof” (IMMUNOVACCINE TECHNOLOGIES INC., priority 2017, published 2020).

Assay: HPLC peptide recovery before and after freeze-drying
Conditions: set specification 0.40-0.60 mg/mL for neoantigens, 0.2-0.3 mg/mL for A16L
Method: The composition prepared as described in Example 4, containing 14 neoantigens and the A16L T-helper peptide, was subjected to HPLC analysis to evaluate the peptide stability before and after freeze-drying.
Experimental Conditions: • IPQC Solutions: Dilute the IPQC solutions with Methanol and then with Mobile Phase A, e.g. as follows: • 100 mg In-Process Testing Solution • +450 μL Methanol, mix • +450 μL Mobile Phase A, mix • Mix by vortexing. Samples containing lipids will be slightly hazy. Dilution factor=10×. • Lyophilisates (for Release and Stability Testing): Solubilize the lyophilisate with Ultrapure lab water. Add 3-4 glass beads and vortex vigorously for 1 minute to assure complete homogenization. Dilute the solution with Methanol and subsequently with Mobile Phase A, e.g. as follows: • 100 mg In-Process Testing Solution • +450 μL Methanol, mix • +450 μL Mobile Phase A, mix • Mix by vortexing. The sample preparations will be slightly hazy. Dilution factor=20×.
The dried preparations were solubilized in water for HPLC analysis. T=0 is the day in which the samples were removed from the freeze-dryer. T=1M and T=3M are 1 month and 3 months after T=0, respectively, with the dried preparation having been stored at −20° C.

Sequence	Peptide concentration relative to set specification
CGTAFFINFIAIYHHASRAIPFGTMVA (Mut36) [Mut 36]	consistently outside the set specification
IPSGTTILNCFHDVLSGKLSGGSPGVP (Mut29A) [Mut 29a]	outside the set specification
VVDRNPQFLDPVLAYLMKGLCEKPLAS (Mut17) [Mut 17]	outside the set specification
